Experimental data taken from patent publication US20090075925A1, “Methods and Compositions Related to APOBEC-1 Expression” (priority 2006, published 2009).

T1: ACF (Rattus norvegicus, UniProt Q923K9)
T1 construct: from tissue; host or cells: rat liver nuclear extract (27S gradient fractions)
T1 sequence (Q923K9 1-586 isoform Q923K9-2): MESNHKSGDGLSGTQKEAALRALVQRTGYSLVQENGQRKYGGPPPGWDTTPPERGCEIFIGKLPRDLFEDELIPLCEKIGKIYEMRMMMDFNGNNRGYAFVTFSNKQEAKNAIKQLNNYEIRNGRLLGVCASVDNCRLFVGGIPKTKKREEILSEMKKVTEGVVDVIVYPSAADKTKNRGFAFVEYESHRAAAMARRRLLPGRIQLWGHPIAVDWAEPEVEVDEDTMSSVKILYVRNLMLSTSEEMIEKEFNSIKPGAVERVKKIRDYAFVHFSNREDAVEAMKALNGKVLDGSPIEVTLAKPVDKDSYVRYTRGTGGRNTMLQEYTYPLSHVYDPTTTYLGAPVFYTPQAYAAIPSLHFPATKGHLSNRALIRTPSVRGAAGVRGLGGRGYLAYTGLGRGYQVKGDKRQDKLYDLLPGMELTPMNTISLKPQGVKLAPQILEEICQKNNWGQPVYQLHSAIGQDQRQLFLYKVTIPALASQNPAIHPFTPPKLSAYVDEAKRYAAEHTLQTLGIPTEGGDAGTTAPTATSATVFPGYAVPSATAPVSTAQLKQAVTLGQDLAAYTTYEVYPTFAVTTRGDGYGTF

B1: ACF: APOBEC-1 Complementation Factor (protein, UniProt Q923K9 1-594, looked up)
APOBEC1 complementation factor: MESNHKSGDGLSGTQKEAALRALVQRTGYSLVQENGQRKYGGPPPGWDTTPPERGCEIFIGKLPRDLFEDELIPLCEKIGKIYEMRMMMDFNGNNRGYAFVTFSNKQEAKNAIKQLNNYEIRNGRLLGVCASVDNCRLFVGGIPKTKKREEILSEMKKVTEGVVDVIVYPSAADKTKNRGFAFVEYESHRAAAMARRRLLPGRIQLWGHPIAVDWAEPEVEVDEDTMSSVKILYVRNLMLSTSEEMIEKEFNSIKPGAVERVKKIRDYAFVHFSNREDAVEAMKALNGKVLDGSPIEVTLAKPVDKDSYVRYTRGTGGRNTMLQEYTYPLSHVYDPTTTYLGAPVFYTPQAYAAIPSLHFPATKGHLSNRALIRTPSVREIYMNVPVGAAGVRGLGGRGYLAYTGLGRGYQVKGDKRQDKLYDLLPGMELTPMNTISLKPQGVKLAPQILEEICQKNNWGQPVYQLHSAIGQDQRQLFLYKVTIPALASQNPAIHPFTPPKLSAYVDEAKRYAAEHTLQTLGIPTEGGDAGTTAPTATSATVFPGYAVPSATAPVSTAQLKQAVTLGQDLAAYTTYEVYPTFAVTTRGDGYGTF
B2: CIAP: Calf Intestinal Alkaline Phosphatase (protein, UniProt P19111 20-506, looked up)
Intestinal-type alkaline …: LVPVEEEDPAFWNRQAAQALDVAKKLQPIQTAAKNVILFLGDGMGVPTVTATRILKGQMNGKLGPETPLAMDQFPYVALSKTYNVDRQVPDSAGTATAYLCGVKGNYRTIGVSAAARYNQCKTTRGNEVTSVMNRAKKAGKSVGVVTTTRVQHASPAGAYAHTVNRNWYSDADLPADAQMNGCQDIAAQLVNNMDIDVILGGGRKYMFPVGTPDPEYPDDASVNGVRKRKQNLVQAWQAKHQGAQYVWNRTALLQAADDSSVTHLMGLFEPADMKYNVQQDHTKDPTLQEMTEVALRVVSRNPRGFYLFVEGGRIDHGHHDDKAYMALTEAGMFDNAIAKANELTSELDTLILVTADHSHVFSFGGYTLRGTSIFGLAPSKALDSKSYTSILYGNGPGYALGGGSRPDVNDSTSEDPSYQQQAAVPQASETHGGEDVAVFARGPQAHLVHGVEEETFVAHIMAFAGCVEPYTDCNLPAPTTATSIPD

Assays:
mooring sequence = details: read-out: Kd for the mooring sequence / apoB mRNA; cited from earlier work
apoB mRNA = assay: ultraviolet light cross-linking of ACF (p66) to apoB RNA in liver nuclear extract; type: binding, rat
Protocol: (§1) In vitro editing reactions and RNA binding assays. In vitro editing reactions and quantitative poisoned-primer extension assays were carried out using 80 μg of extract proteins as previously described (Shah et al. (1993), Smith, H. C. (1998)). ApoB RNA binding assays were performed by subjecting nuclear extract (80 μg) to in vitro editosome assembly and ultraviolet crosslinking (Smith, H. C. (1998)).
To further investigate the role of phosphorylation, rat liver nuclear extract was treated with CIAP and assayed for in vitro apoB RNA editing activity. […] Phosphorylation can play a role in the subcellular localization and/or stability of ACF. […] These yields were achieved by treatment of rat primary hepatocytes (40 T25 flasks) with 0.45% ethanol for four hours in the presence of 70 mCi of total inorganic ^32P followed by immunoprecipitation of ACF64/65 (FIG. 32). Two IPs were resolved by PAGE (FIG. 32, Coomassie) and ACF64/65 identified (western).

ACF = target: T1, ACF; assay: removal of 32P label from immunoprecipitated hepatic ACF; type: biochemical; details: in vivo labeled rat hepatic nuclear extract
Protocol: ACF is a phosphoprotein. Previous studies using site-directed mutagenesis of APOBEC-1 and overexpression of protein kinase Co implicated phosphorylation of APOBEC-1 as a mechanism for activating apoB mRNA editing (Chen et al. (2001)). To evaluate whether endogenous ACF is phosphorylated in vivo, rats were radiolabeled for 4 hours via an intraperitoneal injection of orthophosphoric acid in HEPES-buffered saline. Following extensive digestion of hepatic nuclear extracts with DNase I and RNase T1 to remove radiolabeled nucleic acids, ACF was immunoprecipitated with the CT antibody, resolved by SDS-PAGE, transferred to nitrocellulose and analyzed by autoradiography as well as immunoblotting with ACF NT antibody (FIG. 3A). A single band was detected by autoradiography that super-imposed with ACF-specific immunoblot reactivity. Greater than 90% of the ^32P-label was removed by CIAP treatment (FIG. 3B), consistent with the post-translational phosphorylation of protein. […] The amino acid sequence of rat ACF was predicted contain 23 serine/threonine and 7 tyrosine high probability sites of phosphorylation (http://www.cbs.dtu.dk/services.NetPhos and http://expasy.org/tools/scanprosite). […] Nuclear ACF was detected as two predominant charge isoforms (FIG. 3B). […]

ACF/APOBEC-1 complexes = assay: co-immunoprecipitation of HA-tagged APOBEC-1 with ACF from McArdle nuclear extracts; type: biochemical, rat; details: nuclear extracts treated with CIAP
Protocol: Nuclear extracts were immunoprecipitated with ACF CT antibody and processed as described in FIG. 1. For CIAP treatment extracts were adjusted to 5 mM MgCl2, 3 mM CaCl2, 0.1 mM ZnCl2 and 25% glycerol and then incubated with 5U CIAP for 1 hour at 30° C. Control extracts were treated similarly but lacked phosphatase. The ratios of APOBEC-1:ACF were determined by scanning densitometry and quantitation using ImageJ Software. HC, position of 1g heavy chain. (n=4, standard deviation+/−0.2). […] In vitro editing activity was determined using the poisoned-primer extension assay. The percent editing was quantified by PhoshorImager (Molecular Dynamics) scanning densitometry. Data shown is representative of 3 independent experiments. *Statistical significance was determined to be P≦0.01 by unpaired t-test relative to control. […] Quantitation of relative amounts of ACF bound was performed using PhoshorImager scanning densitometry. Data shown are representative of 4 independent experiments. *Statistical significance was determined to be P≦0.01 by unpaired t-test relative to control.
Given the selective recovery of APOBEC-1 with nuclear ACF (FIG. 1), the interaction between ACF and APOBEC-1 was explored in nuclear extracts was mediated by post-translational modifications such as protein phosphorylation.

apoB mRNA editing = assay: in vitro apoB mRNA editing activity of nuclear extract after phosphatase treatment; type: biochemical, rat
Protocol: as §1
As an interaction between ACF and APOBEC-1 is critical for editing activity (Metha et al. Mol Cell Biol 20:1846-54 (2000)) the effect of alkaline phosphatase treatment on in vitro editing activity of hepatocyte extracts was investigated.

Row | Molecule | Kd (mooring sequence) [nM] | ultraviolet light cross-linking of ACF to apoB mRNA (apoB mRNA; 1, 5 or 10 U) | increase in yield of cross-linked p66 compared to control (apoB mRNA; highest CIAP treatment) [%] | 32P-label removed from ACF (ACF) | reduction in HA-tagged APOBEC-1 recovered with immunoprecipitated ACF (ACF/APOBEC-1 complexes) [fold] | inhibition of apoB mRNA editing activity relative to control extracts (apoB mRNA editing; CIAP-treated nuclear extract) [fold] | inhibition of in vitro editing activity compared to buffer-treated control extracts (apoB mRNA editing; rat liver nuclear extracts) [%]
1 | B1 | 8 | – | – | – | – | – | –
2 | B2 | – | did not significantly increase ultraviolet light cross-linking of ACF to apoB mRNA | 40 | Greater than 90% | 3 | 2.5 | > 50
